Assay results: patent US20250066745A1, “MUTANTS AND USE THEREOF” (BGI SHENZHEN, priority 2021, published 2025)

Legend:
[1] = Luminescence activity assay of purified Gaussia luciferase mutants on coelenterazine; type: biochemical; set-up: key to Activity of mutant relative to wild-type Gaussia luciferase without the signal peptide: ratio of mutant luminescence intensity to wild-type Gaussia luciferase; conditions: Substrate CTZ (Table 16)
Protocol: (§1) In this Example, the protein concentration was determined with a BCA quantitative kit (Thermo Scientific™ Pierce™ BCA Protein Assay Kit) accurately. The purified luciferase obtained in Example 5 was diluted with diluent (50 mM Tris-HCl, pH 8.0, 100 mM NaCl, 0.1% (v/v) Tween-20) to 1 μg/mL. The diluted luciferase, taken for 10 μL, was moved into a black 96-well plate, then added with 90 μL of the substrates coelenterazine, fluoro-coelenterazine or coelenterazine derivative ZS2 (purchased from Biolab) which was diluted into 100 μM with the same diluent, and the luminescence intensity of the plate was read with a self-luminescence module of a microplate reader. The mutation site of the mutant, the measured luminescence intensity, the ratio of luminescence intensities of the advantageous mutants to the wild-type Gaussia luciferase without the signal peptide having the sequence shown in SEQ ID NO: 3 are shown in Table 15. The results of catalytic activity assay of the advantageous mutants relative to the wild-type Gaussia luciferase without the signal peptide having the sequence shown in SEQ ID NO: 3 on substrate coelenterazine are shown in FIG. 6. […] The results of catalytic activity assay of the advantageous mutants relative to the wild-type Gaussia luciferase without the signal peptide having the sequence shown in SEQ ID NO: 3 on substrate fluoro-coelenterazine are shown in FIG. 7.
(§2) The new mutant library constructed in Example 7 was screened and tested for substrate specificity. Expression and purification schemes were the same as that in Example 5, and the activity assay scheme was the same as that in Example 6. The respective catalytic activities of combinatorial mutants on coelenterazine, fluoro-coelenterazine or coelenterazine derivative ZS2, and coelenterazine derivative ZS26 (purchased from BIOLAB) were assayed, and comparisons among the substrate specificities of the combinatorial mutants were based on the ratios of catalytic activities on two corresponding substrates.

[2] = Luminescence activity assay of purified Gaussia luciferase mutants on coelenterazine derivative ZS2; type: biochemical; set-up: key to Activity of mutant relative to wild-type Gaussia luciferase without the signal peptide: ratio of mutant luminescence intensity to wild-type Gaussia luciferase; conditions: Substrate ZS2 (Table 16)
Protocol: as §1, §2

Row | Molecule | Activity of mutant relative to wild-type Gaussia luciferase without the signal peptide [1] | Activity of mutant relative to wild-type Gaussia luciferase without the signal peptide [2]
1 | Q152H Q163S T167G S170V G174N G183A: Gaussia luciferase mutant (protein, SIGNAL (1)..(17), Gaussia luciferase mutant) MGVKVLFALICIAVAEAKPTENNEDFNIVAVASNFATTDLDADRGKLPGKKLPLEVLKEMEANARKAGCTRGCLICLSHIKCTPKMKKFIPGRCHTYEGDKESAQGGIGEAIVDIPEIPGFKDLEPMEQFIAQVDLCVDCTTGCLKGLANVHCSDLLKKWLPSRCAGFAVKIQNQVDKIKGAAGD | 0.006 | 0.064
2 | Q152R Q163S T167G S170V G174K Q175E K178S A182Y G183A: Gaussia luciferase mutant (protein, SIGNAL (1)..(17), Gaussia luciferase mutant) MGVKVLFALICIAVAEAKPTENNEDFNIVAVASNFATTDLDADRGKLPGKKLPLEVLKEMEANARKAGCTRGCLICLSHIKCTPKMKKFIPGRCHTYEGDKESAQGGIGEAIVDIPEIPGFKDLEPMEQFIAQVDLCVDCTTGCLKGLANVRCSDLLKKWLPSRCAGFAVKIQKEVDSIKGYAGD | 0.992 | 1.011
3 | Q152R Q163T T167S S170N G174K K178S A182Y G183A: Gaussia luciferase mutant (protein, SIGNAL (1)..(17), Gaussia luciferase mutant) MGVKVLFALICIAVAEAKPTENNEDFNIVAVASNFATTDLDADRGKLPGKKLPLEVLKEMEANARKAGCTRGCLICLSHIKCTPKMKKFIPGRCHTYEGDKESAQGGIGEAIVDIPEIPGFKDLEPMEQFIAQVDLCVDCTTGCLKGLANVRCSDLLKKWLPTRCASFANKIQKQVDSIKGYAGD | 1.030 | 0.413
4 | Q152R T167G S170N K178S A182L G183N: Gaussia luciferase mutant (protein, SIGNAL (1)..(17), Gaussia luciferase mutant) MGVKVLFALICIAVAEAKPTENNEDFNIVAVASNFATTDLDADRGKLPGKKLPLEVLKEMEANARKAGCTRGCLICLSHIKCTPKMKKFIPGRCHTYEGDKESAQGGIGEAIVDIPEIPGFKDLEPMEQFIAQVDLCVDCTTGCLKGLANVRCSDLLKKWLPQRCAGFANKIQGQVDSIKGLNGD | 0.807 | 0.737
5 | T167S S170D G174N Q175E K178N A182L: Gaussia luciferase mutant (protein, SIGNAL (1)..(17), Gaussia luciferase mutant) MGVKVLFALICIAVAEAKPTENNEDFNIVAVASNFATTDLDADRGKLPGKKLPLEVLKEMEANARKAGCTRGCLICLSHIKCTPKMKKFIPGRCHTYEGDKESAQGGIGEAIVDIPEIPGFKDLEPMEQFIAQVDLCVDCTTGCLKGLANVQCSDLLKKWLPQRCASFADKIQNEVDNIKGLGGD | 0.850 | 0.890
6 | Q152R Q163S T167G S170D G174K A182Y G183A: Gaussia luciferase mutant (protein, SIGNAL (1)..(17), Gaussia luciferase mutant) MGVKVLFALICIAVAEAKPTENNEDFNIVAVASNFATTDLDADRGKLPGKKLPLEVLKEMEANARKAGCTRGCLICLSHIKCTPKMKKFIPGRCHTYEGDKESAQGGIGEAIVDIPEIPGFKDLEPMEQFIAQVDLCVDCTTGCLKGLANVRCSDLLKKWLPSRCAGFADKIQKQVDKIKGYAGD | 1.050 | 1.402
7 | T96P Q163D T167S G174N K178S A182Y G183A: Gaussia luciferase mutant (protein, SIGNAL (1)..(17), Gaussia luciferase mutant) MGVKVLFALICIAVAEAKPTENNEDFNIVAVASNFATTDLDADRGKLPGKKLPLEVLKEMEANARKAGCTRGCLICLSHIKCTPKMKKFIPGRCHPYEGDKESAQGGIGEAIVDIPEIPGFKDLEPMEQFIAQVDLCVDCTTGCLKGLANVQCSDLLKKWLPDRCASFASKIQNQVDSIKGYAGD | 0.007 | 0.273
8 | Q152H Q163T T167S S170D G174K K178N A182Y G183N: Gaussia luciferase mutant (protein, SIGNAL (1)..(17), Gaussia luciferase mutant) MGVKVLFALICIAVAEAKPTENNEDFNIVAVASNFATTDLDADRGKLPGKKLPLEVLKEMEANARKAGCTRGCLICLSHIKCTPKMKKFIPGRCHTYEGDKESAQGGIGEAIVDIPEIPGFKDLEPMEQFIAQVDLCVDCTTGCLKGLANVHCSDLLKKWLPTRCASFADKIQKQVDNIKGYNGD | 0.079 | 0.089
9 | Q163S T167S S170T G174N K178T: Gaussia luciferase mutant (protein, SIGNAL (1)..(17), Gaussia luciferase mutant) MGVKVLFALICIAVAEAKPTENNEDFNIVAVASNFATTDLDADRGKLPGKKLPLEVLKEMEANARKAGCTRGCLICLSHIKCTPKMKKFIPGRCHTYEGDKESAQGGIGEAIVDIPEIPGFKDLEPMEQFIAQVDLCVDCTTGCLKGLANVQCSDLLKKWLPSRCASFATKIQNQVDTIKGAGGD | 0.706 | 2.603
10 | Q152R S154F Q163D S170T G174N K178T A182Y: Gaussia luciferase mutant (protein, SIGNAL (1)..(17), Gaussia luciferase mutant) MGVKVLFALICIAVAEAKPTENNEDFNIVAVASNFATTDLDADRGKLPGKKLPLEVLKEMEANARKAGCTRGCLICLSHIKCTPKMKKFIPGRCHTYEGDKESAQGGIGEAIVDIPEIPGFKDLEPMEQFIAQVDLCVDCTTGCLKGLANVRCFDLLKKWLPDRCATFATKIQNQVDTIKGYGGD | 0.020 | 0.003
11 | Q152K Q163D S170N G174K Q175E K178T A182L G183A: Gaussia luciferase mutant (protein, SIGNAL (1)..(17), Gaussia luciferase mutant) MGVKVLFALICIAVAEAKPTENNEDFNIVAVASNFATTDLDADRGKLPGKKLPLEVLKEMEANARKAGCTRGCLICLSHIKCTPKMKKFIPGRCHTYEGDKESAQGGIGEAIVDIPEIPGFKDLEPMEQFIAQVDLCVDCTTGCLKGLANVKCSDLLKKWLPDRCATFANKIQKEVDTIKGLAGD | 1.079 | 1.183
